Test results taken from paper PMC9894195.

Tests used:
[1] = molecular target: full-length human Lck-mEGFP (HEK293T) (UniProt P06239); assay: sFCCS (line-scan fluorescence cross-correlation spectroscopy) in live cells; settings: HEK293T cells coexpressing mCherry2-tagged CD4 construct with wild-type Lck-mEGFP; read off a plot
[2] = molecular target: full-length human CD4 with the amphipathic α-helix replaced by a (Gly-Ser)n linker, mCherry2-tagged (human) (UniProt P01730); assay: scanning fluorescence cross-correlation spectroscopy (sFCCS); live HEK293T cells on glass coverslips coexpressing mCherry2- and mEGFP-tagged proteins, one coreceptor; line scans at the basal cell surface; cross-correlation quotient q normalised to the tandem control (100%) and Lck^CS/Lck^CS (0%)
[3] = molecular target: full-length human CD4 with the unstructured C-terminal tail replaced by a (Gly-Ser)n linker, mCherry2-tagged (human) (UniProt P01730); assay: as above
[4] = molecular target: full-length human CD4 with both the basic-rich region and the amphipathic α-helix replaced by (Gly-Ser)n linkers, mCherry2-tagged (human) (UniProt P01730); assay: as above

other: normalized cross-correlation quotient q (occupancy) [1] [%] | decrease in CD4/Lck occupancy [2] [%] | decrease in CD4/Lck occupancy [3] [%] | decrease in CD4/Lck occupancy [4] [%] | Substance
1 | – | – | – | full-length human CD4-mCherry2 (HEK293T) (from UniProt P01730) CQC>SQS (both Zn2+ clasp Cys to Ser; no residue numbers printed)
– | 27 | 14 | 28 | full-length human Lck-mEGFP (HEK293T) (from UniProt P06239 1-509) (enzyme)
